Data from patent US20110159022A1 (published 2011).

B1: MDK 4-18 (peptide)
peptide: RGFLLLTLLALLALT
notes: synthetic 15-mer of the human midkine precursor; also called MDK2; peptide 4-18
B2: MDK 9-23 (peptide)
peptide: LTLLALLALTSAVAK
notes: synthetic 15-mer of the human midkine precursor; also called MDK3; peptide 9-23
B3: MDK 1-15 (peptide)
peptide: MQHRGFLLLTLLALL
notes: synthetic 15-mer of the human midkine precursor; also called peptide 1-15
B4: MDK 14-28 (peptide)
peptide: LLALTSAVAKKKDKV
notes: synthetic 15-mer of the human midkine precursor; also called MDK4; peptide 14-28
B5: MDK 110-124 (peptide)
peptide: ARYNAQCQETIRVTK
notes: synthetic 15-mer of the human midkine precursor; also called MDK17

target: HLA-DR3 (DRB1*0301) (human); assay: competition ELISA, tracer biotin-MT 2-16

Binder | relative binding activity
CNWKKEFGADCKYKF (also called MDK11) [MDK 74-88] | 2 IC50 ratio to reference peptide
KEFGADCKYKFENWG (also called MDK12) [MDK 78-92] | 1 IC50 ratio to reference peptide

target: HLA-DR15 (DRB1*1501) (human); assay: competition ELISA, tracer biotin-A3 152-166

Binder | relative binding activity
B1 | 19 IC50 ratio to reference peptide
B2 | 5 IC50 ratio to reference peptide

target: HLA-DRB4 (DRB4*0101) (human); assay: competition ELISA, tracer biotin-E2/E168

Binder | relative binding activity
B1 | 65 IC50 ratio to reference peptide
QTQRIRCRVPCNWKK (also called MDK9) [MDK 64-78] | 1160 IC50 ratio to reference peptide
B3 | 204 IC50 ratio to reference peptide

target: HLA-DR13 (DRB1*1301) (human); assay: competition ELISA, tracer biotin-B1 21-36

Binder | relative binding activity
GTKVRQGTLKKARYN (also called MDK15) [MDK 99-113] | 74 IC50 ratio to reference peptide
B4 | 45 IC50 ratio to reference peptide

target: HLA-DR1 (DRB1*0101) (human); assay: competition ELISA, tracer biotin-HA 306-318

Binder | relative binding activity
GTKVRQGTLKKARYN (also called MDK15) [MDK 99-113] | 3000 IC50 ratio to reference peptide
B1 | 21 IC50 ratio to reference peptide
GTLKKARYNAQCQET (also called MDK16) [MDK 105-119] | 97 IC50 ratio to reference peptide
ENWGACDGGTGTKVR (also called MDK14) [MDK 89-103] | 1460 IC50 ratio to reference peptide
B3 | 21 IC50 ratio to reference peptide
AEWAWGPCTPSSKDC (also called MDK7) [MDK 38-52] | 1300 IC50 ratio to reference peptide
ETIRVTKPCTPKTKA (also called MDK18) [MDK 119-133] | 2 IC50 ratio to reference peptide
B5 | 10 IC50 ratio to reference peptide
B4 | 34 IC50 ratio to reference peptide
CNWKKEFGADCKYKF (also called MDK11) [MDK 74-88] | 333 IC50 ratio to reference peptide
CRVPCNWKKEFGADC (also called MDK10) [MDK 70-84] | 53 IC50 ratio to reference peptide
KDKVKKGGPGSECAE (also called MDK6) [MDK 25-39] | 1250 IC50 ratio to reference peptide
B2 | 0.2 IC50 ratio to reference peptide

target: HLA-DR11 (DRB1*1101) (human); assay: competition ELISA, tracer biotin-HA 306-318

Binder | relative binding activity
B1 | 94 IC50 ratio to reference peptide
QTQRIRCRVPCNWKK (also called MDK9) [MDK 64-78] | 504 IC50 ratio to reference peptide
GTLKKARYNAQCQET (also called MDK16) [MDK 105-119] | 1010 IC50 ratio to reference peptide
B3 | 7 IC50 ratio to reference peptide
AEWAWGPCTPSSKDC (also called MDK7) [MDK 38-52] | 923 IC50 ratio to reference peptide
ETIRVTKPCTPKTKA (also called MDK18) [MDK 119-133] | 763 IC50 ratio to reference peptide
B5 | 69 IC50 ratio to reference peptide
B4 | 48 IC50 ratio to reference peptide
CNWKKEFGADCKYKF (also called MDK11) [MDK 74-88] | 1230 IC50 ratio to reference peptide
KEFGADCKYKFENWG (also called MDK12) [MDK 78-92] | 800 IC50 ratio to reference peptide
B2 | 0.3 IC50 ratio to reference peptide

target: HLA-DR4 (DRB1*0401) (human); assay: competition ELISA, tracer biotin-HA 306-318

Binder | relative binding activity
CKYKFENWGACDGGT (also called MDK13) [MDK 84-98] | 362 IC50 ratio to reference peptide
QTQRIRCRVPCNWKK (also called MDK9) [MDK 64-78] | 558 IC50 ratio to reference peptide
GTLKKARYNAQCQET (also called MDK16) [MDK 105-119] | 492 IC50 ratio to reference peptide
AEWAWGPCTPSSKDC (also called MDK7) [MDK 38-52] | 1860 IC50 ratio to reference peptide
ETIRVTKPCTPKTKA (also called MDK18) [MDK 119-133] | 1290 IC50 ratio to reference peptide
B5 | 6 IC50 ratio to reference peptide
B4 | 401 IC50 ratio to reference peptide
CRVPCNWKKEFGADC (also called MDK10) [MDK 70-84] | 1560 IC50 ratio to reference peptide
KEFGADCKYKFENWG (also called MDK12) [MDK 78-92] | 457 IC50 ratio to reference peptide
B2 | 1 IC50 ratio to reference peptide

target: HLA-DRB5 (DRB5*0101) (human); assay: competition ELISA, tracer biotin-HA 306-318

Binder | relative binding activity
GTKVRQGTLKKARYN (also called MDK15) [MDK 99-113] | 215 IC50 ratio to reference peptide
CKYKFENWGACDGGT (also called MDK13) [MDK 84-98] | 292 IC50 ratio to reference peptide
B1 | 46 IC50 ratio to reference peptide
QTQRIRCRVPCNWKK (also called MDK9) [MDK 64-78] | 61 IC50 ratio to reference peptide
B3 | 161 IC50 ratio to reference peptide
ETIRVTKPCTPKTKA (also called MDK18) [MDK 119-133] | 26 IC50 ratio to reference peptide
B5 | 15 IC50 ratio to reference peptide
B4 | 0.1 IC50 ratio to reference peptide
CNWKKEFGADCKYKF (also called MDK11) [MDK 74-88] | 714 IC50 ratio to reference peptide
KEFGADCKYKFENWG (also called MDK12) [MDK 78-92] | 114 IC50 ratio to reference peptide
B2 | 2 IC50 ratio to reference peptide

target: HLA-DRB3 (DRB3*0101) (human); assay: competition ELISA, tracer biotin-LOL 191-210

Binder | relative binding activity
B1 | 37 IC50 ratio to reference peptide
ENWGACDGGTGTKVR (also called MDK14) [MDK 89-103] | 2330 IC50 ratio to reference peptide
B3 | 267 IC50 ratio to reference peptide
CNWKKEFGADCKYKF (also called MDK11) [MDK 74-88] | 877 IC50 ratio to reference peptide
CRVPCNWKKEFGADC (also called MDK10) [MDK 70-84] | 621 IC50 ratio to reference peptide
KEFGADCKYKFENWG (also called MDK12) [MDK 78-92] | 226 IC50 ratio to reference peptide

target: T1, HLA-DP402 (DPB1*0402) (human, UniProt P20036 29-222, limits assumed); assay: competition ELISA, tracer biotin-Oxy 271-287
T1 construct: also called DP*0402

Binder | relative binding activity
CKYKFENWGACDGGT (also called MDK13) [MDK 84-98] | 49 IC50 ratio to reference peptide
B1 | 18 IC50 ratio to reference peptide
B3 | 19 IC50 ratio to reference peptide
AEWAWGPCTPSSKDC (also called MDK7) [MDK 38-52] | 239 IC50 ratio to reference peptide
KEFGADCKYKFENWG (also called MDK12) [MDK 78-92] | 378 IC50 ratio to reference peptide
B2 | 29 IC50 ratio to reference peptide

target: HLA-DP401 (DPB1*0401) (human, UniProt P20036 29-222, limits assumed); assay: competition ELISA, tracer biotin-Oxy 271-287

Binder | relative binding activity
CKYKFENWGACDGGT (also called MDK13) [MDK 84-98] | 52 IC50 ratio to reference peptide
B1 | 6 IC50 ratio to reference peptide
B3 | 20 IC50 ratio to reference peptide
CRVPCNWKKEFGADC (also called MDK10) [MDK 70-84] | 7 IC50 ratio to reference peptide
KEFGADCKYKFENWG (also called MDK12) [MDK 78-92] | 167 IC50 ratio to reference peptide
B2 | 94 IC50 ratio to reference peptide

target: HLA-DR7 (DRB1*0701) (human); assay: competition ELISA, tracer biotin-YKL

Binder | relative binding activity
B1 | 20 IC50 ratio to reference peptide
QTQRIRCRVPCNWKK (also called MDK9) [MDK 64-78] | 2070 IC50 ratio to reference peptide
B3 | 49 IC50 ratio to reference peptide
ETIRVTKPCTPKTKA (also called MDK18) [MDK 119-133] | 819 IC50 ratio to reference peptide
B4 | 590 IC50 ratio to reference peptide
B2 | 13 IC50 ratio to reference peptide
